55 sequences from the supplement of paper PMC10724198 can be followed below.

Data set [1] concerns Saccharomyces cerevisiae. The data set is described as follows: protein stability index of tFT-peptide fusion (C-terminal peptide) (PSI (0-1 scale)); higher = more stable (slower turnover). The settings on record: genetic background: wild type; temperature: 30 C.
Data set [2] deals with Saccharomyces cerevisiae. Described as above. How it is done:
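MPS profiling in S. cerevisiae of the tFT-X12 degron library: putative degron peptides plus stable controls, 12 aa, fused to the C-terminus of a sfGFP-mCherry timer. Cells are FACS-sorted into 8 mCherry/sfGFP bins and deep-sequenced. PSI runs from 0 (unstable) to 1 (stable). Backgrounds are wild type, das1Δ and doa10Δ at 30 °C, and wild type, das1Δ, cdc34-1 and cdc53-1 at 37 °C; 2-3 technical replicates each.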

± gives the standard deviation of the averaged measurements.
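Also: PSI is a weighted mean of sequencing reads over stability bins, variants kept only with over 10 reads, mCherry proximal and sfGFP distal, peptide attached via GGGS linker.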

In the case of WLCGSIGHAMLG, in the data set on Saccharomyces cerevisiae [1], the protein stability index stood at 0.739 ± 0.062. Still for that read-out and setting: in the case of WLFDFECRCILG it was 0.65 ± 0.11; in that of WLFDRLPFNAEN, 0.715 ± 0.046.

The sequence WLFRGELCGGAN showed a protein stability index in the data set with Saccharomyces cerevisiae [1] of 0.588 ± 0.014. On the same count and under the same terms, to WLGAYVRAWSVA belongs 0.533 ± 0.0011; to WLGGGGGMQGVR, 0.669 ± 0.057. As for WLISLLVQPVFL, the protein stability index was determined as 0.295 ± 0.0052 in the data set with Saccharomyces cerevisiae [2] (genetic background: cdc34-1, temperature: 37 C); 0.3167 ± 0.0022 in the data set with Saccharomyces cerevisiae [2] (genetic background: cdc53-1, temperature: 37 C); 0.276 ± 0.029 in the data set on Saccharomyces cerevisiae [2] (genetic background: das1 deletion, temperature: 30 C); 0.4053 ± 0.0021 in the data set with Saccharomyces cerevisiae [2] (genetic background: das1 deletion, temperature: 37 C); 0.233 ± 0.0031 in the data set on Saccharomyces cerevisiae [2] (genetic background: doa10 deletion, temperature: 30 C); 0.273 ± 0.02 in the data set on Saccharomyces cerevisiae [2] (genetic background: wild type, temperature: 30 C). In the data set with Saccharomyces cerevisiae [2] (genetic background: wild type, temperature: 37 C), the protein stability index stood at 0.37 ± 0.0047.

Regarding WLRTGNVLQELL, in the data set on Saccharomyces cerevisiae [1], the protein stability index came out at 0.699 ± 0.03. Still for that read-out and setting: in the case of WLVCGRSFVFTL it was 0.549 ± 0.058; in that of WLVFRISLLRFD, 0.541 ± 0.026; in that of WLVRHLGFVPWI, 0.7 ± 0.028. Same read-out and setting: to WLWLGFNRVFFY belongs 0.511 ± 0.033; to WMAFRRIPTWSG, 0.679 ± 0.073; to WMSLLEFGSLCG, 0.748 ± 0.15. In the data set with Saccharomyces cerevisiae [1], WPGYLTNVLPVI registered a protein stability index of 0.65 ± 0.029. Same read-out and setting: to WPSTLHRGLSLP belongs 0.702 ± 0.074. Consider WRCAGVGGVGGG, for which the protein stability index in the data set with Saccharomyces cerevisiae [1] came to 0.708 ± 0.012. Turning to WRGIFPSRFCLS, the protein stability index in the data set with Saccharomyces cerevisiae [1] amounted to 0.62 ± 0.039. With WRGRWVWGVGEV, the protein stability index with Saccharomyces cerevisiae [1] amounted to 0.628 ± 0.069. The same measure, in the same setting: to WRLAGRRGIQCD belongs 0.7 ± 0.017; to WRLCWWVVESGG, 0.639 ± 0.02; to WRPPPPYSPFSL, 0.74 ± 0.066.

WRRLVGGVAWLW: the protein stability index in the data set on Saccharomyces cerevisiae [1] amounted to 0.726 ± 0.08.

Take WRVVTPPSVDHR: the protein stability index in the data set with Saccharomyces cerevisiae [1] was determined as 0.677 ± 0.015.

Consider WSAPHPVCSPPS, for which the protein stability index in the data set on Saccharomyces cerevisiae [1] stood at 0.697 ± 0.0093. WSGERCFLGFYR yielded a protein stability index in the data set on Saccharomyces cerevisiae [1] of 0.771 ± 0.087. Still for that read-out and setting: in the case of WSPVPVPPPLPT it was 0.722 ± 0.083. The same measure, in the same setting: in the case of WSSCISCLLRGV it was 0.688 ± 0.066; in that of WSSSRPASGSSA, 0.708 ± 0.016; in that of WSSVLGYFSRKE, 0.702 ± 0.024. On the same count and under the same terms, in the case of WTAITDRRSRPD it was 0.616 ± 0.063; in that of WTDHISEHLHTV, 0.742 ± 0.039; in that of WTFEYRNHKMKK, 0.7149 ± 0.0071.

The sequence WVAFTRGGCGHC came in with a protein stability index in the data set with Saccharomyces cerevisiae [1] of 0.66 ± 0.017. Same read-out and setting: to WVCARQVGIGWG belongs 0.6657 ± 0.0019; to WVCCVGAGFLVV, 0.594 ± 0.03.

WVCRGSSLKSSI: the protein stability index with Saccharomyces cerevisiae [1] amounted to 0.677 ± 0.058. Still for that read-out and setting: in the case of WVFRHSTMNNEN it was 0.672 ± 0.094; in that of WVGEVSMGVRAG, 0.666 ± 0.014; in that of WVGLGMSLRRAA, 0.564 ± 0.062. In the case of WVSMDFTGLVNG, in the data set on Saccharomyces cerevisiae [1], the protein stability index amounted to 0.628 ± 0.015. As to WVTKGLYIMSTK, in the data set on Saccharomyces cerevisiae [1], the protein stability index amounted to 0.663 ± 0.11. WVVGCVRGVWGA: the protein stability index in the data set with Saccharomyces cerevisiae [1] turned out to be 0.712 ± 0.051.

In turn, WWEGSFRGGAVR had a protein stability index in the data set on Saccharomyces cerevisiae [1] of 0.592 ± 0.094. The same measure, in the same setting: to WYSSSRDLSVSG belongs 0.731 ± 0.0076. On the same count and under the same terms, to YASKNPSVVIFG belongs 0.68 ± 0.018; to YATLGPDRALVR, 0.655 ± 0.0095. In turn, YAVGWLLGGLWD showed a protein stability index in the data set with Saccharomyces cerevisiae [1] of 0.765 ± 0.053. Sequence YCGCLGYATGRV returned a protein stability index in the data set with Saccharomyces cerevisiae [1] of 0.671 ± 0.017. Still for that read-out and setting: in the case of YCGLQSWLGVGG it was 0.677 ± 0.0076. The same measure, in the same setting: in the case of YCMRPLCLEMFR it was 0.682 ± 0.016; in that of YCPLSRTQSSAR, 0.859 ± 0.18. On the same count and under the same terms, to YCPVFSLPPFFR belongs 0.664 ± 0.086; to YCRSFSGPFFDI, 0.745 ± 0.094. YCTMHLQLLQHS registered a protein stability index in the data set on Saccharomyces cerevisiae [1] of 0.578 ± 0.012.
